Experimental data reported in patent US20040259795A1.

Key:
[1] = target: soluble recombinant human CD14 (rHu-LAIT) (human) (UniProt P08571); experiment: cell-based or functional assay
[2] = target: soluble recombinant bovine CD14 (rBo-LAIT) (bovine) (UniProt Q95122); experiment: cell-based or functional assay
Sequence of UniProt Q95122 (Q95122 21-373 S209T limits assumed): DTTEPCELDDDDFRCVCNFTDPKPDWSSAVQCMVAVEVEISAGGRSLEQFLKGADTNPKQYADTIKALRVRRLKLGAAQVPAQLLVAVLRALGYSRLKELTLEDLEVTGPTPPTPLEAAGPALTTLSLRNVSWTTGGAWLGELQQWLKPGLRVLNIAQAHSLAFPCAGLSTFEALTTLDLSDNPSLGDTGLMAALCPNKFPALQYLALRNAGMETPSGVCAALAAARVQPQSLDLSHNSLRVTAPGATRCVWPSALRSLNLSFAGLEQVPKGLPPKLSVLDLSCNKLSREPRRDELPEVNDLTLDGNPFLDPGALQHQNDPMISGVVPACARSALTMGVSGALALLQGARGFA

Sequence of UniProt P08571 (P08571 20-345 C187Y limits assumed): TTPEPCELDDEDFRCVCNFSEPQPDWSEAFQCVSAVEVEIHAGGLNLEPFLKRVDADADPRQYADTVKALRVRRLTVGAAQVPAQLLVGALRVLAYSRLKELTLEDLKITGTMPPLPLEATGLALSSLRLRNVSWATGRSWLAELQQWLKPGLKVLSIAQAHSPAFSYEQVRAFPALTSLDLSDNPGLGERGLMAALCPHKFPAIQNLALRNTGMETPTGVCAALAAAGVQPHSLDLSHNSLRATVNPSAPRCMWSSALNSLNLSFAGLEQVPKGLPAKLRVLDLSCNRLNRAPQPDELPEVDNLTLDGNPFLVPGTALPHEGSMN

inhibition of B cell activation (3H-TdR uptake, percent of response without mAb) [1]: < 15%
inhibition of B cell activation (3H-TdR uptake, percent of response without mAb) [2]: < 15%
inhibition of induction of mIg+ 70Z/3 cells (flow cytometry) [2]: < 15%
Substance: IgG2b isotype non-specific mAb OX40 (antibody)
